Test results reported in patent US20180369322A1.

How the values were obtained:
human plasma proteins = assay: equilibrium dialysis, drug at 10 and 100 µM, human plasma
rat plasma proteins = assay: equilibrium dialysis, drug at 10 and 100 µM, rat plasma
monkey plasma proteins = assay: equilibrium dialysis, drug at 10 and 100 µM, monkey plasma

Measured: in vitro plasma protein binding

R5000 (peptide)
> 99.9%: all assays above
